From the RNAGym collection of RNA variant scans (doi:10.7554/elife.90254) come the findings set out here.

First the molecules themselves.
B1: LINE1-full (parent)
chain: UACGUAGGUGGUUUUCCCCUGAUAGUGCUAAGGGGGCCUGGAAGUUUGGACUGGGCAGAGCUCAACACAGCGUGGCAAAGUGGCUGUGGCUAGACUGCCUCUCUGGAUUCCUCGUCACUCAGCAGGGCAUCUCUGAGAGAAAUGCC

The variants in this data set derive from B1. The data set is described as follows: self-cleavage, relative activity (ratio to wild type); higher = more cleavage; in vitro, sequencing; the parent is a self-cleaving ribozyme.
Regarding UACGUAGGUGGUUUUCCCCUGAUAGUGCUACGGGGGCCUGGAAGUUUGGACUGGGCAGAGCUCAACACAGCGUGGCAAGGUGGCUGUGGCUAGACUGCCUCUCUGGAUUCCUCGUCACUCAGCAGGGCAUCUCUGAGAGAAAUGCC [A31C A79G], the self-cleavage was found to be 1.02.

Turning to UACGUAGGUGGUUUUCCCCUGAUAGUGCUACGGGGGCCUGGAAGUUUGGACUGAGCAGAGCUCAACACAGCGUGGCAAAGUGGCUGUGGCUAGACUGCCUCUCUGGAUUCCUCGUCACUCAGCAGGGCAUCUCUGAGAGAAAUGCC [A31C G54A], the self-cleavage worked out at 1.02.

In the case of UACGUAGGUGGUUUUCCCCUGAUAGUGCUAGGGGGGCCUGGAUGUUUGGACUGGGCAGAGCUCAACACAGCGUGGCAAAGUGGCUGUGGCUAGACUGCCUCUCUGGAUUCCUCGUCACUCAGCAGGGCAUCUCUGAGAGAAAUGCC [A31G A43U], the self-cleavage is 0.89.

As for UACGUAGGUGGUUUUCCCCUGAUAGUGCUACGGGGGCCUGGAAGUUUGGACUGGGCAGAGCUCAACACAGCGUGGCAAAGUGGCUGUGGCUAGACUGCCUCUCUGGAUUCCUCGUCACUCAGCAGGGCAUCUCUGAGAGAGAUGCC [A31C A141G], the self-cleavage was found to be 1.43.

As to UACGUAGGUGGUUUUCCCCUGAUAGUGCUACGGGGGCCUGGAAGUUUGGACUGGGCAGAGCUCAACACAGCGUGGCAAAGUGGCUGAGGCUAGACUGCCUCUCUGGAUUCCUCGUCACUCAGCAGGGCAUCUCUGAGAGAAAUGCC [A31C U87A], the self-cleavage worked out at 0.07.

In the case of UACGUAGGUGGUUUUCCCCUGAUAGUGCUAGGGGGGCCUGGAAGUUUGGACUGGGCAGAGCUCAACACAGCGUGGCAAAGUGGCUGUGGCUAGACUGCCUCUCUGGAUUCCUCGUCACUCAGCAGGGCAUCUCUGAGUGAAAUGCC [A31G A138U], the self-cleavage was determined as 1.05.

On to UACGUAGGUGGUUUUCCCCUGAUAGUGCUACGGGGGCCUGGAAGUUUGGACUGGGCAGGGCUCAACACAGCGUGGCAAAGUGGCUGUGGCUAGACUGCCUCUCUGGAUUCCUCGUCACUCAGCAGGGCAUCUCUGAGAGAAAUGCC [A31C A59G], for which the self-cleavage is 0.26.

As for UACGUAGGUGGUUUUCCCCUGAUAGUGCUACGGGGGCCUGGAAGUUUGGACUGGGCAGCGCUCAACACAGCGUGGCAAAGUGGCUGUGGCUAGACUGCCUCUCUGGAUUCCUCGUCACUCAGCAGGGCAUCUCUGAGAGAAAUGCC [A31C A59C], the self-cleavage amounted to 0.61.

In the case of UACGUAGGUGGUUUUCCCCUGAUAGUGCUAGGGGGGCCUGGAAGUUUGGACUGGGCAGAGCUCAACACAGCGUGGCGAAGUGGCUGUGGCUAGACUGCCUCUCUGGAUUCCUCGUCACUCAGCAGGGCAUCUCUGAGAGAAAUGCC [A31G A77G], the self-cleavage turned out to be 2.49.

On to UACGUAGGUGGUUUUCCCCUGAUAGUGCUACGGGGGCCUGGAAGUUUGGACUGGGCAGAGCUCAACACAGCGUGGCAAAGUGGCUGUGGCUAGACUGCCUCUCUGGAUUCCUCGUCACUCAGCAGGGCAUCUCUGAGGGAAAUGCC [A31C A138G], for which the self-cleavage amounted to 1.31.

For the variant UACGUAGGUGGUUUUCCCCUGAUAGUGCUAGGGGGGCCUGGAAGUUUGGGCUGGGCAGAGCUCAACACAGCGUGGCAAAGUGGCUGUGGCUAGACUGCCUCUCUGGAUUCCUCGUCACUCAGCAGGGCAUCUCUGAGAGAAAUGCC [A31G A50G], the self-cleavage amounted to 1.42.

Consider UACGUAGGUGGUUUUCCCCUGAUAGUGCUAGGGGGGCCUGGAAGUUUGGACUGGGCAGAGCUCAACACAGCGUGGCAAAGUGGCUGUGGCUAGACUGCCUCUCUGGAUUCCUCGUCACUCAGCAGGGCAUCUCUGAGAGGAAUGCC [A31G A140G], for which the self-cleavage was found to be 1.79.

Consider UACGUAGGUGGUUUUCCCCUGAUAGUGCUAGGGGGGCCUGGAAGUUUGGACUGGGCAGAGCUCAACACAGCGUGGCAAAGUGGCUGUGGCUGGACUGCCUCUCUGGAUUCCUCGUCACUCAGCAGGGCAUCUCUGAGAGAAAUGCC [A31G A92G], for which the self-cleavage stood at 0.09.

Turning to UACGUAGGUGGUUUUCCCCUGAUAGUGCUAGGGGGGCCUGGAAGUUUGGACUGGGCAGAGCUCAACACGGCGUGGCAAAGUGGCUGUGGCUAGACUGCCUCUCUGGAUUCCUCGUCACUCAGCAGGGCAUCUCUGAGAGAAAUGCC [A31G A69G], the self-cleavage was 0.78.

Turning to UACGUAGGUGGUUUUCCCCUGAUAGUGCUACGGGGGCCUGGAAGUUUGGACUGGGCAGAGCUCAACACAGCGUGGCAAAGUGGCUGUGGCUAGACUGCCUCUCUGGAUCCCUCGUCACUCAGCAGGGCAUCUCUGAGAGAAAUGCC [A31C U109C], the self-cleavage stood at 2.01.

As to UACGUAGGUGGUUUUCCCCUGAUAGUGCUACGGGGGCCUGGAAGUUUGGACUGGGCAGAGCUCAACACAGCGUGGCAAAGUGGCUGUGGCUAGACUGCCUCUCUGGAUUCCUCGUCACUCAGCAGGGCAUCUCAGAGAGAAAUGCC [A31C U134A], the self-cleavage is 1.26.

For UACGUAGGUGGUUUUCCCCUGAUAGUGCUUAGGGGGCCUGGAAGUUUGGACUGGGCAGAGCUCAACACAGCGUGGCAAAGUGGCUGUGGCUAGACUGCCUCUCUGGAUUCCUCGUCACUCAGCAGGGCAUCUCUGAGAGAAAGGCC [A30U U143G], the self-cleavage amounted to 1.38.

In the case of UACGUAGGUGGUUUUCCCCUGAUAGUGCUUAGGGGGCCUGGAAGUUUGGACUGGGCAGAGCUCAACACAGCGUGGCAAAGUGGCUGUGGCUAGACUGCCUCUCUGGAUUCCUCGUCACUCAGCAGGGCAUCUCUGAGAGAAACGCC [A30U U143C], the self-cleavage amounted to 0.77.

For UACGUAGGUGGUUUUCCCCUGAUAGUGCUACGGGGGCCUGGAAGUUAGGACUGGGCAGAGCUCAACACAGCGUGGCAAAGUGGCUGUGGCUAGACUGCCUCUCUGGAUUCCUCGUCACUCAGCAGGGCAUCUCUGAGAGAAAUGCC [A31C U47A], the self-cleavage came to 1.12.

In the case of UACGUAGGUGGUUUUCCCCUGAUAGUGCUACGGGGGCCUGGAAGUUUGGACUGGGCAGAGCUCAACACAGCGUGGCAAAGUGGCUGUGGCUAGACUGCCUCUCUGGAUUCCUCGUCACUCAGCAGGGCAUCUCUGAGAGAAAAGCC [A31C U143A], the self-cleavage was determined as 1.01.

As to UACGUAGGUGGUUUUCCCCUGAUAGUGCUAGGGGGGACUGGAAGUUUGGACUGGGCAGAGCUCAACACAGCGUGGCAAAGUGGCUGUGGCUAGACUGCCUCUCUGGAUUCCUCGUCACUCAGCAGGGCAUCUCUGAGAGAAAUGCC [A31G C37A], the self-cleavage stood at 1.32.

As for UACGUAGGUGGUUUUCCCCUGAUAGUGCUAGGGGGGUCUGGAAGUUUGGACUGGGCAGAGCUCAACACAGCGUGGCAAAGUGGCUGUGGCUAGACUGCCUCUCUGGAUUCCUCGUCACUCAGCAGGGCAUCUCUGAGAGAAAUGCC [A31G C37U], the self-cleavage stood at 1.6.

As to UACGUAGGUGGUUUUCCCCUGAUAGUGCUAGGGGGGCCUGGAAGUUUGGACUGGGCAGAGCUCGACACAGCGUGGCAAAGUGGCUGUGGCUAGACUGCCUCUCUGGAUUCCUCGUCACUCAGCAGGGCAUCUCUGAGAGAAAUGCC [A31G A64G], the self-cleavage was found to be 0.31.

On to UACGUAGGUGGUUUUCCCCUGAUAGUGCUAGGGGGGCCUGGAAGUUUGGACUGGGCAGAGCUCAACACAGCGUGGCAAAGUGGCUGUGGCUAGACUGCCUCUCUGGGUUCCUCGUCACUCAGCAGGGCAUCUCUGAGAGAAAUGCC [A31G A107G], for which the self-cleavage is 1.09.

On to UACGUAGGUGGUUUUCCCCUGAUAGUGCUACGGGGGCCUGGAAGUUUGGACUGGGCAGAGCUCAACACAGCGUGGCAAAGUGGCUGUGGCUAGACUGCCUCUCUGGAUUCCUCGUCACUCAGCAGGGCAUCCCUGAGAGAAAUGCC [A31C U132C], for which the self-cleavage came to 2.33.

Consider UACGUAGGUGGUUUUCCCCUGAUAGUGCUAGGGGGGCCUGGAAGUUUGGACUGGGCAGAGCUCAACACAGCGUGGCAAAGUGGCUGUGGCUAGGCUGCCUCUCUGGAUUCCUCGUCACUCAGCAGGGCAUCUCUGAGAGAAAUGCC [A31G A94G], for which the self-cleavage was 0.94.

Take UACGUAGGUGGUUUUCCCCUGAUAGUGCUACGGGGGCCUGGAAGCUUGGACUGGGCAGAGCUCAACACAGCGUGGCAAAGUGGCUGUGGCUAGACUGCCUCUCUGGAUUCCUCGUCACUCAGCAGGGCAUCUCUGAGAGAAAUGCC [A31C U45C]: the self-cleavage was 1.84.

Turning to UACGUAGGUGGUUUUCCCCUGAUAGUGCUACGGGGGCCUGGAAGUUUGGACUGGGCAGAGCUCAACACGGCGUGGCAAAGUGGCUGUGGCUAGACUGCCUCUCUGGAUUCCUCGUCACUCAGCAGGGCAUCUCUGAGAGAAAUGCC [A31C A69G], the self-cleavage turned out to be 0.33.

Turning to UACGUAGGUGGUUUUCCCCUGAUAGUGCUACGGGGGCCUGGAAGUUUGGACUGGGCAGAGCUCAACACAGCGUGGCAAAGUGGCUGUGGCUAGACUGCCUCUCUGGAUUCCUCGUCACUCAGCAGGGCAUCUCUGAGAGGAAUGCC [A31C A140G], the self-cleavage stood at 1.18.

Consider UACGUAGGUGGUUUUCCCCUGAUAGUGCUAGGGGGGCCUGGAAGUUUGGACUGGGCGGAGCUCAACACAGCGUGGCAAAGUGGCUGUGGCUAGACUGCCUCUCUGGAUUCCUCGUCACUCAGCAGGGCAUCUCUGAGAGAAAUGCC [A31G A57G], for which the self-cleavage came to 0.95.

Take UACGUAGGUGGUUUUCCCCUGAUAGUGCUAGGGGGGCCUGGAAGUUUGGACUGGGCUGAGCUCAACACAGCGUGGCAAAGUGGCUGUGGCUAGACUGCCUCUCUGGAUUCCUCGUCACUCAGCAGGGCAUCUCUGAGAGAAAUGCC [A31G A57U]: the self-cleavage amounted to 0.3.

With UACGUAGGUGGUUUUCCCCUGAUAGUGCUAGGGGGGCCUGGAAGUUUGGACUGGGCAGAGCUCAACACAGCGUGGCAAAGUGGCUGUGGCUAGACUGCCUCUCUGGAUUCCUCGUCCCUCAGCAGGGCAUCUCUGAGAGAAAUGCC [A31G A117C], the self-cleavage came to 2.3.

Consider UACGUAGGUGGUUUUCCCCUGAUAGUGCUAGGGGGGCUUGGAAGUUUGGACUGGGCAGAGCUCAACACAGCGUGGCAAAGUGGCUGUGGCUAGACUGCCUCUCUGGAUUCCUCGUCACUCAGCAGGGCAUCUCUGAGAGAAAUGCC [A31G C38U], for which the self-cleavage is 0.99.

Regarding UACGUAGGUGGUUUUCCCCUGAUAGUGCUACGGGGGCCUGGAAGUUUGGACUGGGCAGAGCUCAACACAGCGUGGCAAAGUGGCUGUGGCUAGACUGCCUCUCUGGAUUCCUCGUCACUCAGCAGGGCUUCUCUGAGAGAAAUGCC [A31C A129U], the self-cleavage turned out to be 1.51.

Consider UACGUAGGUGGUUUUCCCCUGAUAGUGCUAGGGGGGCCUGGAAGUUUGGACUGGGCAGAGCUCAACACAGCGUGGCAAAGUGGCUGUGGCUAGACUGCCUCUCUGGAUUCCUCGUCACUCAGCAGGGCAUCUCUGUGAGAAAUGCC [A31G A136U], for which the self-cleavage is 1.26.

As to UACGUAGGUGGUUUUCCCCUGAUAGUGCUAGGGGGGCCUGGAAGUUUGGACUGGGCAGAGCUCAACACAGCGUGGCAAAGUGGCUGUGGCUAGACUGCCUCUCUGGAUUCCUCGUCACUCAGCAGGGCAUCUCUGGGAGAAAUGCC [A31G A136G], the self-cleavage amounted to 1.37.

Consider UACGUAGGUGGUUUUCCCCUGAUAGUGCUAGGGGGGCCUGGAAGUUUGGACUGGGCAGAGCUCAACACAGCGUGGCAAUGUGGCUGUGGCUAGACUGCCUCUCUGGAUUCCUCGUCACUCAGCAGGGCAUCUCUGAGAGAAAUGCC [A31G A79U], for which the self-cleavage came to 2.64.

Regarding UACGUAGGUGGUUUUCCCCUGAUAGUGCUAGGGGGGCCUGGAAGUUUGGACUGGGCAGAGCUCAACACAGCGUGGCAAAGUGGCUGUGGCUAGACUGCCUCUCUGGAUUCCUCGUCACUCAGCGGGGCAUCUCUGAGAGAAAUGCC [A31G A124G], the self-cleavage is 1.09.

As for UACGUAGGUGGUUUUCCCCUGAUAGUGCUAGGGGGGCCUGGAAGUUUGGACUGGGCAGAGCUCAACACAGCGUGGCAAAGUGGCUGUGGCUAGACUGCCUCUCUGGAUUCCUCGUCACUCAGCAGGGCGUCUCUGAGAGAAAUGCC [A31G A129G], the self-cleavage was 1.05.
